Source: PMC5358978 (2017)

Target: human CRM1 (HsCRM1), wild type (human, UniProt O14980 1-1071)
Test: direct titration, PKI WT set

Chain of human CRM1 (HsCRM1), wild type (O14980 whole entry): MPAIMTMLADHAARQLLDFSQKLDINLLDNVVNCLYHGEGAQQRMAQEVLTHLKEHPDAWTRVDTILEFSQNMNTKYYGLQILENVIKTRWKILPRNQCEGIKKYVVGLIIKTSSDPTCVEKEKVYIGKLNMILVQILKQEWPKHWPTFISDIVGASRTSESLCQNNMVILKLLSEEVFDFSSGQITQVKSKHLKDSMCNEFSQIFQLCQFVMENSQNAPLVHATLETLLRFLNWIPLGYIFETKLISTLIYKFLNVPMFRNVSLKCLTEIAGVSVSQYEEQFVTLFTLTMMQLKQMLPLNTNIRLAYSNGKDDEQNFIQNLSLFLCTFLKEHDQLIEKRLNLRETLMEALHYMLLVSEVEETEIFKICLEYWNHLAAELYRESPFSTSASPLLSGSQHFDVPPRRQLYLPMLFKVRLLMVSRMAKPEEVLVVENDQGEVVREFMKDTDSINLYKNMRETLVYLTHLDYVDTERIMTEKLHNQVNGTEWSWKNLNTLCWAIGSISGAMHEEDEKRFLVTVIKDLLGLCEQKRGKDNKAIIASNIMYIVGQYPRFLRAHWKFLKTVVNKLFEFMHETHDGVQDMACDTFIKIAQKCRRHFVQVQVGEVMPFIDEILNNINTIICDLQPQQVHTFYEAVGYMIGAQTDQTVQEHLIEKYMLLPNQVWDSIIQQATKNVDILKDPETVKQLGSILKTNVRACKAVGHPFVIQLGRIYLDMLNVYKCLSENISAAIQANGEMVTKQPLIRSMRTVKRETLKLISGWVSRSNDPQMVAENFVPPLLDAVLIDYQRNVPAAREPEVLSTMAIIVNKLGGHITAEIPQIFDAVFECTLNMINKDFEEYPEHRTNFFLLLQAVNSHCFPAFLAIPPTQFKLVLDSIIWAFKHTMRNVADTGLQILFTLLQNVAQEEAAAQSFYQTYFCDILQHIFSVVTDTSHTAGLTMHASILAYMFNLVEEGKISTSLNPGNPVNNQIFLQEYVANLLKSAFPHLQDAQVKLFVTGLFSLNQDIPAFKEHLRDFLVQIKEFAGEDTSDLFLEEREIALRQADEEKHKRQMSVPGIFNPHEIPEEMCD

B1: FITC-PKI NES (NES of Protein Kinase A Inhibitor, wild type) (peptide)
chain: NSNELALKLAGLDINKT
modifications: FITC label (FITC-PKI^NES)
For B1, the Kd was 29 nM.
